Data as given in the supplement of paper PMC9112550, “Optimization of the antimicrobial peptide Bac7 by deep mutational scanning” (BMC Biology, 2022).

Tested on: Escherichia coli TOP10
Test: shrunken log2 fold change of peptide-encoding DNA abundance (4.5 h post-induction vs induction); higher = less antimicrobial activity (less host growth inhibition)
Settings: time post-induction: 4.5 h; library: site-saturation at positions 5, 18, 19, 20
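Also: peptides expressed intracellularly from a pBAD plasmid library in pooled LB shake-flask culture, induced with 0.3% L-arabinose, DNA abundance read by NGS, three biological replicates, DESeq2 with apeglm shrinkage.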

| Sequence | shrunken log2 fold change |
| --- | --- |
| RRIRVRPPRLPRPRPRPDDFPRP | 0.0492 |
| RRIRPRPPRLPRPRPRPKGPPRP | 0.641 |
| RRIRFRPPRLPRPRPRPFQFPRP | -0.253 |
| RRIRPRPPRLPRPRPRPPWGPRP | 0.34 |
| RRIRCRPPRLPRPRPRPQFYPRP | -0.782 |
| RRIRKRPPRLPRPRPRPTKPPRP | 0.221 |
| RRIRKRPPRLPRPRPRPATPPRP | 0.939 |
| RRIRTRPPRLPRPRPRPRMMPRP | 1.32 |
| RRIRLRPPRLPRPRPRPHMIPRP | -0.672 |
| RRIRNRPPRLPRPRPRPQQSPRP | -0.0808 |
| RRIRIRPPRLPRPRPRPRTGPRP | -0.0659 |
| RRIRSRPPRLPRPRPRPPYAPRP | 0.0164 |
| RRIRARPPRLPRPRPRPCQSPRP | -0.0122 |
| RRIRRRPPRLPRPRPRPQQIPRP | -0.0299 |
| RRIRARPPRLPRPRPRPYDEPRP | -0.0107 |
| RRIRHRPPRLPRPRPRPACDPRP | 0.285 |
| RRIRKRPPRLPRPRPRPSLEPRP | 0.286 |
| RRIRSRPPRLPRPRPRPQCKPRP | 0.0936 |
| RRIRVRPPRLPRPRPRPEMGPRP | 0.104 |
| RRIRPRPPRLPRPRPRPMMKPRP | -0.173 |
| RRIRRRPPRLPRPRPRPSQGPRP | 0.0642 |
| RRIRTRPPRLPRPRPRPLIWPRP | 0.361 |
| RRIRCRPPRLPRPRPRPGYKPRP | -0.0902 |
| RRIRQRPPRLPRPRPRPHYAPRP | -0.0213 |
| RRIRLRPPRLPRPRPRPAFDPRP | -0.0259 |

| Sequence | shrunken log2 fold change |
| --- | --- |
| RRIRERPPRLPRPRPRPVMAPRP | -0.0537 |
| RRIRYRPPRLPRPRPRPLDDPRP | -0.115 |
| RRIRERPPRLPRPRPRPAAFPRP | -0.0909 |
| RRIRRRPPRLPRPRPRPQTCPRP | 0.247 |
| RRIRDRPPRLPRPRPRPIDGPRP | 0.0392 |
| RRIRNRPPRLPRPRPRPSSGPRP | -0.649 |
| RRIRQRPPRLPRPRPRPMENPRP | -0.0199 |
| RRIRCRPPRLPRPRPRPNWEPRP | 0.0349 |
| RRIRCRPPRLPRPRPRPYGGPRP | -0.136 |
| RRIRARPPRLPRPRPRPENKPRP | 0.31 |
| RRIRARPPRLPRPRPRPQYDPRP | -0.018 |
| RRIRNRPPRLPRPRPRPTEKPRP | -0.0107 |
| RRIRIRPPRLPRPRPRPDKLPRP | -0.275 |
| RRIRQRPPRLPRPRPRPTRPPRP | 1.05 |
| RRIRDRPPRLPRPRPRPGCTPRP | 0.727 |
| RRIRARPPRLPRPRPRPAHKPRP | 0.664 |
| RRIRGRPPRLPRPRPRPNESPRP | 0.302 |
| RRIRLRPPRLPRPRPRPIDTPRP | 0.115 |
| RRIRHRPPRLPRPRPRPVLHPRP | -0.501 |
| RRIRIRPPRLPRPRPRPLQDPRP | -0.31 |
| RRIRLRPPRLPRPRPRPLEAPRP | 0.41 |
| RRIRGRPPRLPRPRPRPHLEPRP | 0.381 |
| RRIRWRPPRLPRPRPRPQQVPRP | -0.00531 |
| RRIRVRPPRLPRPRPRPCALPRP | -0.115 |
| RRIRVRPPRLPRPRPRPISHPRP | -0.326 |

| Sequence | shrunken log2 fold change |
| --- | --- |
| RRIRQRPPRLPRPRPRPTKKPRP | -0.0835 |
| RRIRKRPPRLPRPRPRPWAIPRP | 0.14 |
| RRIRGRPPRLPRPRPRPHPDPRP | 0.502 |
| RRIRWRPPRLPRPRPRPCNVPRP | -0.00213 |
| RRIRSRPPRLPRPRPRPMFGPRP | -0.325 |
| RRIRTRPPRLPRPRPRPWPRPRP | 0.116 |
| RRIRQRPPRLPRPRPRPMCRPRP | -0.0374 |
| RRIRTRPPRLPRPRPRPMGIPRP | 0.049 |
| RRIRARPPRLPRPRPRPNWTPRP | 0.0524 |
| RRIRRRPPRLPRPRPRPPREPRP | 1.11 |
| RRIRNRPPRLPRPRPRPGLNPRP | 0.035 |
| RRIRWRPPRLPRPRPRPNRHPRP | 0.0506 |
| RRIRVRPPRLPRPRPRPEESPRP | 0.246 |
| RRIRFRPPRLPRPRPRPPIGPRP | -0.229 |
| RRIRGRPPRLPRPRPRPFNFPRP | 0.0755 |
| RRIRKRPPRLPRPRPRPVMHPRP | -0.0631 |
| RRIRGRPPRLPRPRPRPVDLPRP | 0.687 |
| RRIRYRPPRLPRPRPRPIYQPRP | -0.614 |
| RRIRHRPPRLPRPRPRPWMWPRP | -0.0064 |
| RRIRDRPPRLPRPRPRPTDNPRP | -0.5 |
| RRIRQRPPRLPRPRPRPLILPRP | -0.424 |
| RRIRCRPPRLPRPRPRPVFRPRP | -0.128 |
| RRIRARPPRLPRPRPRPMWHPRP | 0.131 |
| RRIRRRPPRLPRPRPRPPTVPRP | 0.24 |
| RRIRPRPPRLPRPRPRPIVLPRP | -0.772 |

| Sequence | shrunken log2 fold change |
| --- | --- |
| RRIRQRPPRLPRPRPRPWACPRP | -0.0783 |
| RRIRLRPPRLPRPRPRPNNEPRP | -0.276 |
| RRIRFRPPRLPRPRPRPQDQPRP | -0.0978 |
| RRIRNRPPRLPRPRPRPDEYPRP | 0.00318 |
| RRIRFRPPRLPRPRPRPWSPPRP | -0.491 |
| RRIRHRPPRLPRPRPRPDCSPRP | -0.284 |
| RRIRGRPPRLPRPRPRPSICPRP | 0.207 |
| RRIRCRPPRLPRPRPRPRCDPRP | -0.047 |
| RRIRPRPPRLPRPRPRPDQKPRP | -0.0552 |
| RRIRRRPPRLPRPRPRPHTIPRP | 0.141 |
| RRIRPRPPRLPRPRPRPEVRPRP | -0.0106 |
| RRIRKRPPRLPRPRPRPASHPRP | 0.442 |
| RRIRPRPPRLPRPRPRPKQYPRP | -0.29 |
| RRIRLRPPRLPRPRPRPMFSPRP | -0.267 |
| RRIRRRPPRLPRPRPRPNHHPRP | -0.25 |
| RRIRNRPPRLPRPRPRPIVLPRP | -0.211 |
| RRIRARPPRLPRPRPRPNYMPRP | -0.2 |
| RRIRIRPPRLPRPRPRPFETPRP | -0.231 |
| RRIRKRPPRLPRPRPRPLDDPRP | 0.227 |
| RRIRVRPPRLPRPRPRPHYIPRP | -0.589 |
| RRIRLRPPRLPRPRPRPWYLPRP | -0.759 |
| RRIRCRPPRLPRPRPRPLITPRP | -0.125 |
| RRIRSRPPRLPRPRPRPWGIPRP | -0.118 |
| RRIRRRPPRLPRPRPRPYIRPRP | -0.715 |
| RRIRNRPPRLPRPRPRPSPQPRP | 0.162 |

| Sequence | shrunken log2 fold change |
| --- | --- |
| RRIRRRPPRLPRPRPRPGEEPRP | 0.139 |
| RRIRARPPRLPRPRPRPWSEPRP | 0.0573 |
| RRIRNRPPRLPRPRPRPTDEPRP | 0.0528 |
| RRIRERPPRLPRPRPRPEVLPRP | 0.28 |
| RRIRNRPPRLPRPRPRPIEKPRP | -0.0498 |
| RRIRVRPPRLPRPRPRPPIMPRP | -0.486 |
| RRIRGRPPRLPRPRPRPANRPRP | 0.0838 |
| RRIRLRPPRLPRPRPRPCHTPRP | -0.173 |
| RRIRPRPPRLPRPRPRPRVHPRP | -0.0821 |
| RRIRWRPPRLPRPRPRPGTFPRP | -0.0686 |
| RRIRNRPPRLPRPRPRPDTFPRP | 0.0183 |
| RRIRFRPPRLPRPRPRPLNHPRP | -0.608 |
| RRIRYRPPRLPRPRPRPFAPPRP | -0.386 |
| RRIRPRPPRLPRPRPRPMPNPRP | 0.156 |
| RRIRMRPPRLPRPRPRPRVHPRP | 0.446 |
| RRIRFRPPRLPRPRPRPLRKPRP | 0.465 |
| RRIRHRPPRLPRPRPRPCWKPRP | -0.119 |
| RRIRERPPRLPRPRPRPHILPRP | -0.245 |
| RRIRVRPPRLPRPRPRPDLMPRP | -0.00839 |
| RRIRFRPPRLPRPRPRPWYYPRP | -0.735 |
| RRIRGRPPRLPRPRPRPQQKPRP | 0.206 |
| RRIRMRPPRLPRPRPRPTHVPRP | -0.00477 |
| RRIRHRPPRLPRPRPRPKNIPRP | -0.477 |
| RRIRNRPPRLPRPRPRPVFSPRP | -0.192 |
| RRIRMRPPRLPRPRPRPSLAPRP | 0.566 |

| Sequence | shrunken log2 fold change |
| --- | --- |
| RRIRHRPPRLPRPRPRPHLFPRP | -0.154 |
| RRIRFRPPRLPRPRPRPWKNPRP | 0.0106 |
| RRIRYRPPRLPRPRPRPLLKPRP | -0.634 |
| RRIRKRPPRLPRPRPRPEVGPRP | 1.29 |
| RRIRARPPRLPRPRPRPEKEPRP | 0.248 |
| RRIRERPPRLPRPRPRPRSQPRP | -0.341 |
| RRIRLRPPRLPRPRPRPDGFPRP | 0.052 |
| RRIRERPPRLPRPRPRPDWGPRP | -0.00783 |
| RRIRSRPPRLPRPRPRPAPGPRP | 0.54 |
| RRIRPRPPRLPRPRPRPWTAPRP | -0.305 |
| RRIRNRPPRLPRPRPRPKVYPRP | -0.406 |
| RRIRRRPPRLPRPRPRPCTSPRP | 0.0211 |
| RRIRERPPRLPRPRPRPHSGPRP | -0.365 |
| RRIRNRPPRLPRPRPRPIAWPRP | 0.228 |
| RRIRNRPPRLPRPRPRPNEDPRP | 0.00927 |
| RRIRHRPPRLPRPRPRPCELPRP | 0.00567 |
| RRIRFRPPRLPRPRPRPWGNPRP | 0.117 |
| RRIRIRPPRLPRPRPRPHRNPRP | -0.846 |
| RRIRQRPPRLPRPRPRPNMAPRP | -0.173 |
| RRIRDRPPRLPRPRPRPMNSPRP | -0.0173 |
| RRIRMRPPRLPRPRPRPIVGPRP | 0.108 |
| RRIRNRPPRLPRPRPRPWTFPRP | -0.0614 |
| RRIRARPPRLPRPRPRPTPFPRP | 0.609 |
| RRIRSRPPRLPRPRPRPFIDPRP | -0.0941 |
| RRIRMRPPRLPRPRPRPDGIPRP | 1.33 |
